The term kcat denotes the maximal rate divided by the concentration of active sites. A word on the kcat/Km: it is the turnover number divided by the Michaelis constant.

Data set [1] deals with CC(C)(O/N=C(\C(=O)N[C@@H]1C(=O)N2C(C(=O)[O-])=C(C[n+]3ccccc3)CS[C@H]12)c1csc(N)n1)C(=O)O. The experiment in a line: purified protein. Particulars: 10 mM HEPES pH 7.5, 150 mM NaCl, 25 °C, standard error in parentheses.
Data set [2] deals with CO/N=C(\C(=O)N[C@@H]1C(=O)N2C(C(=O)O)=C(COC(C)=O)CS[C@H]12)c1csc(N)n1. Briefly: purified protein. Particulars: 10 mM HEPES pH 7.5, 150 mM NaCl, 25 °C, standard error in parentheses, n = 3.

For KPC-2 (Klebsiella pneumoniae), in data set [1], the Km is listed as 530 (70) μM, the kcat amounted to 1.9 s⁻¹ and the kcat/Km stood at 3500 M⁻¹ s⁻¹. Also, in data set [2], the Km is 200 (29) μM, the turnover number (kcat) came out at 76 s⁻¹ and the specificity constant (kcat/Km) was 380000 M⁻¹ s⁻¹.
